The target in data set [1] is T1, MBP-PhoB (Synechococcus sp. WH7803) (UniProt A0ACE0B1Y2).
T1 sequence: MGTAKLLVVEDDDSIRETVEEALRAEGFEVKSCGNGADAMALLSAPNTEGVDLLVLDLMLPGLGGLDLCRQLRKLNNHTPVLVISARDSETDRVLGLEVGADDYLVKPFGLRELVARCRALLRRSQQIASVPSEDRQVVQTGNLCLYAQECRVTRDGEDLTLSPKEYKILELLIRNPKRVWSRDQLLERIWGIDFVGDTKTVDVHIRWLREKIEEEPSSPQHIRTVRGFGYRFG
Put plainly: EMSA. Particulars: 10 mM Tris-HCl pH 8, 50 mM KCl, 2 mM MgCl2, 5% glycerol, 0.05 mg/mL BSA, 1 mM DTT, 3 mM spermidine (described as 2x binding buffer); 25 ng DNA, 30 min at 23 C ….

The target of data set [2] is T1, MBP-PhoB (Synechococcus sp. WH7803). The data set is described as follows: competition. To be noted: 10 mM Tris-HCl pH 8, 50 mM KCl, 2 mM MgCl2, 5% glycerol, 0.05 mg/mL BSA, 1 mM DTT, 3 mM spermidine (described as 2x binding buffer); 25 ng DNA, 30 min at 23 C ….

On to “TACACTATCTAGGAAACTCATAAATTACCTCTTAGAAAAAACTTAATAGAGAAACTTTTTTCTCATAATCCCAACCAATACATTCTAGCACATTTTTCAATGGTTCCAAGAAAGACTTCTCAAACTGAGTCTGATAGTCAATATACTTATCAACGTTAAACTCCTTGGGAATGTCACTGAAGAATGATATGCAGTTCTCCTGAATTGGGTTTGGTGTTCTCAAG (double strand) [S-PM2d134 (uvsX) promoter]”, for which the binding result in data set [1] and in data set [2] was “binds” in each case.
As to “AGTTCTTCCCGAGGATTTGTTCGATGAATTCTGAACCAGTAACATCACTTTATCTCTCATTTAACCAAATCAAGTATATTCTTGATGTTATGTGGGGAACCGATCCAGTTACAGCAAAACTATTTGCAAACTCTCACGGAGTTGATGATACCGAACTGGAACGTTATCTTTCCTCTCGTTTAACTGATGGTGATATAACTAAAGTAGATTATACAATTCTTGGAGAAAAATGATTAATGTCAAACAAGAAGATAACGGCAGCTTCAC (double strand) [FAM-S-PM2d004 promoter]”, in data set [1], the binding result was “binds”.
In the case of “CAGCAAGAGCGACTTCAATTTCGAAGTTATTATTGTCATGTTTGATTAAATTGTAGGGCGGGTAATTTTTATTGTGATGTGTCATCGAATCCAATCGATGAAATACATCATCCAGACCTACAAAGTGGGGGGAGTAAATATCCCAAGTGAATTTAGTCATTGCTTTCTCCTTTATTTAAGCGAGTTTGAATTAGGATCTCA (double strand) [S-PM2d130 (hsp20) promoter]”, the binding entry in data set [1] is given as “no binding”.
Regarding “AGTTCTTCCCGAGGATTTGTTCGATGAATTCTGAACCAGTAACATCACTTTATCTCTCATTTAACCAAATCAAGTATATTCTTGATGTTATGTGGGGAACCGATCCAGTTACAGCAAAACTATTTGCAAACTCTCACGGAGTTGATGATACCGAACTGGAACGTTATCTTTCCTCTCGTTTAACTGATGGTGATATAACTAAAGTAGATTATACAATTCTTGGAGAAAAATGATTAATGTCAAACAAGAAGATAACGGCAGCTTCAC (double strand) [S-PM2d004 promoter (full-length fragment)]”, the binding result in data set [1] and in data set [2] was “binds” throughout.
As for “AGGGGTACTGGATCATTTCTGAAGTTGAAGAAATTGATGGTTTGGAGTTTGGGGACCCCGATTGTATGTTAAAATATCCATATGCAGTTGAACAAGGGGTCCTCGTCCCATGGCCACCATATTCAACAGAAAAAAAGATCATTGTAAGATCTTCCGAGATCAGTGTCATGGTTGATCCAGATGCTCCTCGCCTTGCAGATTATGCCAAATTGAAATCAGAAGAGACCTAATGAAATTTTACACCAGCGTACAACAAGCAGGTA (double strand) [S-PM2d133 (gp43) promoter (full-length fragment)]”, in data set [1], the binding result is reported as “binds”.
Take “GTAACTTCCGACACAAATTCTTGATAGCGTTCAAAGTTTACTTTAGACATATTAGATAATAAAAGAACTGAATTTGTCAATTCGCTTTTGGCGAGTTGAAAGGTCTTCAAAAGAATCCGCTAGATCTTCCTGTTCGACAAGAGCATCAGCAGATGTCTCATCATCAACATTATACAGCTTCATCTTTGCTCTGTCAATACCAACTGTAAAACGGCGATGCATCGTAGGATCATTATATCGATTCTTCAATTGCTTCACCATAATACGACTGGATTGTTCT (double strand) [S-PM2d136 (mazG) promoter]”: the binding result in data set [1] and in data set [2] was “no binding” throughout.
For the sequence “TACACTATCTAGGAAACTCATAAATTACCTCTTAGAAAAAACTTAATAGAGAAACTTTTTTCTCATAATCCCAACCAATACATTCTAGCACATTTTTCAATGGTTCCAAGAAAGACTTCTCAAACTGAGTCTGATAGTCAATATACTTATCAACGTTAAACTCCTTGGGAATGTCACTGAAGAATGATATGCAGTTCTCCTGAATTGGGTTTGGTGTTCTCAAG (double strand) [FAM-S-PM2d134 promoter]”, the binding result in data set [1] is given as “binds”.

The values are drawn from publication PMC10976474.
